The target of this experiment is T1, VEGF (UniProt P15692).
T1 chain: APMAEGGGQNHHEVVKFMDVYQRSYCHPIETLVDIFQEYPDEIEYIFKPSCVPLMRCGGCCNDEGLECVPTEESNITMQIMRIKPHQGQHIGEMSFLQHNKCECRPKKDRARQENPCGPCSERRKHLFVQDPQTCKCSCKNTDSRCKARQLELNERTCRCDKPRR
The experiment is described as follows: SPR. Background: SPR reads the build-up and loss of mass on a sensor chip optically.

B1: scFv1 (antibody)
chain: DIQLTQSPSSLSASVGDRVTITCSASQDISNYLNWYQQKPGKAPKVLIYFTSSLHSGVPSRFSGSGSGTDFTLTISSLQPEDEATYYCQQYSTVPWTFGQGTKVEIKGGGSGGGSGGGSGGGSGGGSEVQLVESGGGLVQPGGSLRLSCAASGYDFTHYGMNWVRQAPGKGLEWVGWINTYTGEPTYAADFKRRFTFSLDTSKSTAYLQMNSLRAEDTAVYYCAKYPYYYGTSHWYFDVWGQGTLVTVSS
As usually defined, the Kd is the concentration at which binding is half-saturated. Higher therefore signals lower affinity. As to B1, the Kd turned out to be 0.0205 nM.

B2: scFv3 (antibody)
chain: DIQLTQSPSSLMASVGDRVTITCSASQDISNYLNWYQQKPGKAPKVLIYFTSSLHSGVPSRFSGSGSGTDFTLTISSLQPEDEATYYCQQYSTVPWTFGQGTKVEIKGGGSGGGSGGGSGGGSGGGSEVQLVESGGGLVQPGGSLRLSCAASGYDFTHYGMNWVRQAPGKGLEWVGWINTYTGEPTYAADFKRRFTFSLDTSKSTAYLQMNSLRAEDTAVYYCAKYPYYYGTSHWYFDVWGQGTLVTVSS
B2 returned a Kd of 0.0236 nM.

For the origin of these results see patent US20260317411 (published 2026).
